Test results from publication PMC5973781.

Target: mouse ANKRD16^3xArg (recombinant) (mouse) (UniProt A2AS55)
Test: SwitchSENSE

Question: How did the fold change in affinity against wild type ANKRD16 turn out when “mouse AlaRS^A734E (recombinant, SwitchSENSE and biochemical assays) (from UniProt Q8BGQ7 1-968) (enzyme)” was run?
Answer: 2 fold
